Measurements from publication PMC5529588.

Legend:
[1] = biological target: actin filaments (rabbit muscle actin, polymerized) (rabbit) (UniProt P68135); test: co-sedimentation; high-speed cosedimentation; 3 uM actin (AFs) with 0.25-8 uM FH1FH2; bound against free protein fitted with a hyperbolic function; three independent experiments; methods in the supplement
[2] = biological target: microtubules (porcine brain tubulin, taxol-stabilized) (porcine) (UniProt P02550); test: co-sedimentation; high-speed cosedimentation; 1 uM tubulin (MTs) with 1-12 uM FH1FH2; bound against free protein fitted with a hyperbolic function; methods in the supplement

OsFH15 FH2 (truncated recombinant protein containing the FH2 domain of OsFH15), sequence (Q69MT2 340-768): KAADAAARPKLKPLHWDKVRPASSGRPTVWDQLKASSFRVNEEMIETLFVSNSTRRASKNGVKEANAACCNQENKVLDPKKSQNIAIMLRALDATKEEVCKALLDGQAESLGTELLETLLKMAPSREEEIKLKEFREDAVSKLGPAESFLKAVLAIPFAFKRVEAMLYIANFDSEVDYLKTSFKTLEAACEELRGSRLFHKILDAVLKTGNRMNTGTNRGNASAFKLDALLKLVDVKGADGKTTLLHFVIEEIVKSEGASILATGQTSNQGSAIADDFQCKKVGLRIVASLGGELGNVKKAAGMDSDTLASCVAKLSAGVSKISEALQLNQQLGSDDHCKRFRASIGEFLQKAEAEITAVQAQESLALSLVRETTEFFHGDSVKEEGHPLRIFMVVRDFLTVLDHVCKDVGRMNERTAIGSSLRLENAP

| Substance | Kd [1] [nM] | Kd [2] [nM] |
| --- | --- | --- |
| OsFH15 FH1FH2 (truncated recombinant protein containing the FH1FH2 domain of OsFH15) (domain or fragment) | 820 | 1020 |
| OsFH15 FH2 (truncated recombinant protein containing the FH2 domain of OsFH15) (from UniProt Q69MT2 340-768) (domain or fragment) | – | 1810 |
